# Substrate: O=C(NCC(=O)N1CCC[C@H]1C(=O)Nc1ccc([N+](=O)[O-])cc1)OCc1ccccc1
# Experiment: purified protein
# Format: biochemical, Eurygaster integriceps
# Details: 25 mM ethanolamine, pH 8.5, 0.1 M NaCl, 1 mM DTT, 37 °C, abstract prints 210 ± 53 µM
protein,measurement,value
"spPEP (sunn pest prolyl endoprotease) (Eurygaster integriceps) (protein, full-length ORF (no signal peptide identified), N-terminal FLAG and 10xHis tag, pNYCOMPS-LIC vector, E. coli BL21(DE3), soluble fraction, Ni-NTA, about 80 kDa, tags not reported cut) MKKFQYPEARRDETIKETFFGIEVADPYRWLEDPDSEETKNFVDAQNSISEPYLKGCPARDKIKARLTQMLDYPKYSPPEKEGNHYFYFKNTGLQNHSVLYMQDSLDGPSKVFLDPNTFSSDGTVALTSTSFSEDGSIMGYTVSKSGSDWCTIHFRRVDTGEDYPEELKFVKFGHAAWTHDNLGVFYTRFPEVEGKSDGSETSQNRNQKIYYHKVGTPQSEDILVVELDDPEYIYTVCVSDCGRGVVILPSKFCHNNLVYFSDLSTLKDGIKGKLDVTCIVDKFEADYEFVANTGSKFVFRTNKNAHNYKLVVIDFENHSEENWVTLVPEHPTDVLEQAVSVAQDKLVLCYIRDVKNTLDIHSLVDGSLIRKIPVPIGTVSSISGSKKHSEVFYTFISFTSPGTIYRCDLSQSPIPDPEVFRQITIPGYDPSMFEEKQVFYLSKDGTRIPMFLVHKKVLEQNGKNPCLVYGYGGFNISLLPMFSTIRLVFVQYFNAVFASANIRGGGEYGEKWHDGGRLLNKQNSFDDFIAAGEYLIAEKYTNKSCLAIQGASNGGLLIGASVKPPYWLLEDPEYIYTVCVSDCGRWAVILPSKFCYNNLVYFSVLFQEEHFKNVLKYSPLHNIRVPEDQYPALLLLTASHDDRVVPLHSLKYIAQLQHVMRDNPKQENPLLIQVETKAGHGAGKPTNKRIEEQVDILCFLMNSMNLKFIE",Km,211 ± 53 µM
